Here are results for two substances from publication PMC5971433.

Assay [1] addresses MtrAB (native, the MtrAB component of the MtrCAB complex) (Shewanella oneidensis MR-1). Put plainly: small-angle neutron scattering (SANS); co-purified native MtrCAB at 3.5 and 9.7 mg/ml in 20 mM HEPES pH 7.8, 100 mM NaCl, 2.8 mM Fos-choline-12, 13% D2O (detergent contrast-matched); molecular mass from I(0), ab initio envelope.
Assay [2] deals with MtrCAB porin–cytochrome complex (Shewanella oneidensis MR-1).

For the substance “MtrC (native, from the MtrCAB complex) (natural protein)”, the stoichiometry N in assay [1] is 1.

For the substance “small tetraheme cytochrome (STC) (natural protein)”, in assay [2], the rate of electron transfer from STC internalised in MtrCAB proteoliposomes to external Fe(III) citrate (absorbance at 550 nm) (nM electrons s^-1) amounted to 61 and the rate of electron transfer from external sodium dithionite to STC internalised in MtrCAB proteoliposomes (absorbance at 550 nm) (nM electrons s^-1) was 140.
